The experiment concerns the target Native (wild-type) human factor VIIa (human) (UniProt P08709). The experiment in a line: cell-based or functional assay.
UniProt P08709, sequence (P08709 213-466, chain 2 of 2, other chains not shown): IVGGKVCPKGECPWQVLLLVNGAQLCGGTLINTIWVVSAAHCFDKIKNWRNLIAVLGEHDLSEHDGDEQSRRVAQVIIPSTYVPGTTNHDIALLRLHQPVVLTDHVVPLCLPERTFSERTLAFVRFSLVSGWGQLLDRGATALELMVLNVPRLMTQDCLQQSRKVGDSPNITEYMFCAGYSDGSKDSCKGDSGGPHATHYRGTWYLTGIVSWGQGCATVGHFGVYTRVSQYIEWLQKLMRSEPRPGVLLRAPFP

In the case of “Antithrombin III (ATIII) (from UniProt P01008 33-464)”, the Relative first-order rate constants (ratio) of ATIII inhibition (ratio to wt-Factor VIIa) amounted to 1.

These data come from patent publication US20150044195A1.
